Measured values taken from the supplement of paper PMC10567573.

B1: BCL2L13 (parent)
chain: QSLDQEILLKVKTEIEEELKSLDK

Variants of: B1
Test: protein stability index of a GFP-peptide fusion (GPS, HEK-293T) (PSI 1-6); higher = more stable
Settings: c terminus: a fixed tail appended
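Further: lentivirally expressed fusions sorted by FACS into six bins by GFP to DsRed ratio, PSI derived from sequencing read proportions per bin multiplied by bin number.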

Variant	protein stability index
QSLDQEIKLKVKTEIEEELKSLDK	4.75
QSLDQEIDLKVKTEIEEELKSLDK	5.83
QSLDQEIILKVKTEIEEELKSLDK	4.14
QSLDQEIMLKVKTEIEEELKSLDK	5.37
QSLDQEISLKVKTEIEEELKSLDK	5.18
QSLDQEIHLKVKTEIEEELKSLDK	5.63
QSLDQEIYLKVKTEIEEELKSLDK	3.76
QSLDQEIGLKVKTEIEEELKSLDK	5.45
QSLDQEIWLKVKTEIEEELKSLDK	2.91
QSLDQEIPLKVKTEIEEELKSLDK	5.17
QSLDQEIELKVKTEIEEELKSLDK	5.41
QSLDQEIALKVKTEIEEELKSLDK	5.62
QSLDQEITLKVKTEIEEELKSLDK	5.71
QSLDQEIFLKVKTEIEEELKSLDK	5.14
QSLDQEIRLKVKTEIEEELKSLDK	5.71
QSLDQEICLKVKTEIEEELKSLDK	5.55
QSLDQEIQLKVKTEIEEELKSLDK	5.42
QSLDQEIVLKVKTEIEEELKSLDK	5.32
QSLDQEINLKVKTEIEEELKSLDK	5.9
QSLDQEILLKVKCEIEEELKSLDK	3.28
QSLDQEILLKVKREIEEELKSLDK	4.96
QSLDQEILLKVKPEIEEELKSLDK	5.34
QSLDQEILLKVKIEIEEELKSLDK	2.44
QSLDQEILLKVKGEIEEELKSLDK	4.06

Variant	protein stability index
QSLDQEILLKVKMEIEEELKSLDK	3.65
QSLDQEILLKVKDEIEEELKSLDK	4.44
QSLDQEILLKVKHEIEEELKSLDK	4.71
QSLDQEILLKVKYEIEEELKSLDK	4.14
QSLDQEILLKVKQEIEEELKSLDK	3.67
QSLDQEILLKVKVEIEEELKSLDK	3.58
QSLDQEILLKVKWEIEEELKSLDK	3.48
QSLDQEILLKVKAEIEEELKSLDK	3.97
QSLDQEILGKVKTEIEEELKSLDK	5.13
QSLDQEILQKVKTEIEEELKSLDK	5.37
QSLDQEILSKVKTEIEEELKSLDK	5.21
QSLDQEILYKVKTEIEEELKSLDK	4.45
QSLDQEILTKVKTEIEEELKSLDK	5.25
QSLDQEILCKVKTEIEEELKSLDK	5
QSLDQEILNKVKTEIEEELKSLDK	5.48
QSLDQEILRKVKTEIEEELKSLDK	5.05
QSLDQEILWKVKTEIEEELKSLDK	4.4
QSLDQEILIKVKTEIEEELKSLDK	4.29
QSLDQEILVKVKTEIEEELKSLDK	5.26
QSLDQEILMKVKTEIEEELKSLDK	4.49
QSLDQEILFKVKTEIEEELKSLDK	4.66
QSLDQEILKKVKTEIEEELKSLDK	4.81
QSLDQEILHKVKTEIEEELKSLDK	5.39
QSLDQEILEKVKTEIEEELKSLDK	5.45

Variant	protein stability index
QSLDQEILPKVKTEIEEELKSLDK	4.87
QSVDQEILLKVKTEIEEELKSLDK	5.31
QSWDQEILLKVKTEIEEELKSLDK	4.66
QSTDQEILLKVKTEIEEELKSLDK	4.99
QSYDQEILLKVKTEIEEELKSLDK	5.07
QSSDQEILLKVKTEIEEELKSLDK	5.31
QSLDQEYLLKVKTEIEEELKSLDK	5.46
QSLDQENLLKVKTEIEEELKSLDK	5.33
QSLDQESLLKVKTEIEEELKSLDK	5.69
QSLDQEELLKVKTEIEEELKSLDK	5.63
QSLDQEVLLKVKTEIEEELKSLDK	5.62
QSLDQETLLKVKTEIEEELKSLDK	4.27
QSLDQEALLKVKTEIEEELKSLDK	5.66
QSLDQEPLLKVKTEIEEELKSLDK	5.83
QSLDQEDLLKVKTEIEEELKSLDK	5.68
QSLDQEMLLKVKTEIEEELKSLDK	5.3
QSLDQEWLLKVKTEIEEELKSLDK	2.94
QSLDQEQLLKVKTEIEEELKSLDK	5.12
QSLDQEFLLKVKTEIEEELKSLDK	4.64
QSLDQERLLKVKTEIEEELKSLDK	5.61
QSLDQEHLLKVKTEIEEELKSLDK	5.07
QSLDQEGLLKVKTEIEEELKSLDK	5.33
QSLDQELLLKVKTEIEEELKSLDK	5.32
QSLDQEKLLKVKTEIEEELKSLDK	5.51

Variant	protein stability index
QSLQQEILLKVKTEIEEELKSLDK	4.66
QSLAQEILLKVKTEIEEELKSLDK	4.27
QSLCQEILLKVKTEIEEELKSLDK	4
QSLLQEILLKVKTEIEEELKSLDK	2.79
QSLNQEILLKVKTEIEEELKSLDK	4.52
QSLKQEILLKVKTEIEEELKSLDK	4.55
QSLVQEILLKVKTEIEEELKSLDK	2.66
QSLMQEILLKVKTEIEEELKSLDK	2.83
QSLWQEILLKVKTEIEEELKSLDK	2
QSLIQEILLKVKTEIEEELKSLDK	2.28
QSLEQEILLKVKTEIEEELKSLDK	4.58
QSLFQEILLKVKTEIEEELKSLDK	2.34
QSLHQEILLKVKTEIEEELKSLDK	4.69
QSLSQEILLKVKTEIEEELKSLDK	4.42
QSLTQEILLKVKTEIEEELKSLDK	3.5
QSLRQEILLKVKTEIEEELKSLDK	3.63
QSLDQEILLKCKTEIEEELKSLDK	4.77
QSLDQEILLKRKTEIEEELKSLDK	5.33
QSLDQEILLKLKTEIEEELKSLDK	3.5
QSLDQEILLKKKTEIEEELKSLDK	5.99
QSLDQEILLKQKTEIEEELKSLDK	5.54
QSLDQEILLKPKTEIEEELKSLDK	5.61
